Test results taken from patent US20230192896A1 (published 2023).

Target: free FIXa (activated Factor IX) (UniProt P00740 47-191; P00740 227-461)
Experiment: BLI

| Binder | Kd [nM] |
| --- | --- |
| BIIB-9-606 (antibody, V domains shown) VH: QVQLVQSGAEVKKPGASVKVSCKASGYTFTSYYMHWVRQAPGQGLEWMGIINPSGGSTSYAQKFQGRVTMTRDTSTSTVYMELSSLRSEDTAVYYCARTKWSSSPYGMDVWGQGTTVTVSS VL: not shown | 16 |
| BIIB-9-582 (antibody, V domains shown) VH: QVQLVQSGAEVKKPGASVKVSCKASGYTFTSYYMVWVRQAPGQGLEWMGIINPSGGSTSYAQKFQGRVTMTRDTSTSTVYMELSSLRSEDTAVYYCARAPTYFYSYGMDVWGQGTTVTVSS VL: not shown | 14.2 |
| BIIB-9-484 (antibody, V domains shown) VH: EVQLVESGGGLVKPGGSLRLSCAASGFTFSSYSMNWVRQAPGKGLEWVSSISSSSSYIYYADSVKGRFTISRDNAKNSLYLQMNSLRAEDTAVYYCARDVGGYAGYYGMDVWGQGTTVTVSS VL: not shown | 37.7 |
| BIIB-9-475 (antibody, V domains shown) VH: QVQLQESGPGLVKPSETLSLTCTVSGGSISSYYWSWIRQPPGKGLEWIGSIYYSGSTNYNPSLKSRVTISVDTSKNQFSLKLSSVTAADTAVYYCARDVGGYDYGVGAFDIWGQGTMVTVSS VL: DIQMTQSPSSLSASVGDRVTITCQASQDITNYLNWYQQKPGKAPKLLIYDASNLETGVPSRFSGSGSGTDFTFTISSLQPEDIATYYCQQSSNFPLTFGGGTKVEIK | 5.93 |
| BIIB-9-397 (antibody, V domains shown) VH: QVQLQESGPGLVKPSETLSLTCAVSGYSISSGYYWAWIRQPPGKGLEWIGSIYHSGSTYYNPSLKSRVTISVDTSKNQFSLKLSSVTAADTAVYYCARDVWYVGGFDPWGQGTLVTVSS VL: DIQMTQSPSSLSASVGDRVTITCQASQDISNYLNWYQQKPGKAPKLLIYDASNLETGVPSRFSGSGSGTDFTFTISSLQPEDIATYYCQQSDDHPPTFGGGTKVEIK | 4.89 |
| BIIB-9-433 (antibody, V domains shown) VH: QLQLQESGPGLVKPSETLSLTCTVSGGSISSSRYYWGWIRQPPGKGLEWIGSIYYSGSTYYNPSLKSRVTISVDTSKNQFSLKLSSVTAADTAVYYCARDAGYSAELFDYWGQGTLVTVSS VL: EIVLTQSPATLSLSPGERATLSCRASQSVSSYLAWYQQKPGQAPRLLIYDASNRATGIPARFSGSGSGTDFTLTISSLEPEDFAVYYCQQSSAYPPTFGGGTKVEIK | 16.4 |
| BIIB-9-585 (antibody, V domains shown) VH: QLQLQESGPGLVKPSETLSLTCTVSGGSISSSDYYWGWIRQPPGKGLEWIGSIYYSGSTYYNPSLKSRVTISVDTSKNQFSLKLSSVTAADTAVYYCAREVGTYYYGLDFWFDPWGQGTLVTVSS VL: DIQMTQSPSSVSASVGDRVTITCRASQGISSWLAWYQQKPGKAPKLLIYAASSLQSGVPSRFSGSGSGTDFTLTISSLQPEDFATYYCQQANSYPITFGGGTKVEIK | 12.4 |
| BIIB-9-414 (antibody, V domains shown) VH: QVQLVQSGAEVKKPGASVKVSCKASGYTFTSYYMHWVRQAPGQGLEWMGIINPSGGSTSYAQKFQGRVTMTRDTSTSTVYMELSSLRSEDTAVYYCARDPYSYGMYYFDYWGQGTLVTVSS VL: DIQMTQSPSSVSASVGDRVTITCRASQGISSWLAWYQQKPGKAPKLLIYAASSLQSGVPSRFSGSGSGTDFTLTISSLQPEDFATYYCQQGDVFPFTFGGGTKVEIK | 16.6 |
| BIIB-9-415 (antibody, V domains shown) VH: QVQLVQSGAEVKKPGASVKVSCKASGYTFTSYYMHWVRQAPGQGLEWMGIINPSGGSTSYAQKFQGRVTMTRDTSTSTVYMELSSLRSEDTAVYYCARDGLSSGYYWDNWGQGTLVTVSS VL: DIQMTQSPSSVSASVGDRVTITCRASQGIDSWLAWYQQKPGKAPKLLIYAASSLQSGVPSRFSGSGSGTDFTLTISSLQPEDFATYYCQQGDAFPFTFGGGTKVEIK | 14.4 |
| BIIB-9-568 (antibody, V domains shown) VH: QLQLQESGPGLVKPSETLSLTCTVSGGSISSSSYYWGWIRQPPGKGLEWIGSIYYSGSTYYNPSLKSRVTISVDTSKNQFSLKLSSVTAADTAVYYCARDLGYAATYFDLWGRGTLVTVSS VL: DIQMTQSPSSLSASVGDRVTITCQASQDISNYLNWYQQKPGKAPKLLIYDASNLETGVPSRFSGSGSGTDFTFTISSLQPEDIATYYCQQYDDYLTFGGGTKVEIK | 5.5 |
| BIIB-9-465 (antibody, V domains shown) VH: QVQLVQSGAEVKKPGASVKVSCKASGYTFTSYYMVWVRQAPGQGLEWMGIINPSGGSTSYAQKFQGRVTMTRDTSTSTVYMELSSLRSEDTAVYYCARSPTDGYYFDLWGRGTLVTVSS VL: DIQMTQSPSTLSASVGDRVTITCRASQSINSWLAWYQQKPGKAPKLLISDASSLESGVPSRFSGSGSGTEFTLTISSLQPDDFATYYCQQYEIFPFTFGGGTKVEIK | 19.8 |
| BIIB-9-460 (antibody, V domains shown) VH: QVQLVQSGAEVKKPGASVKVSCKASGYTFTSYYMHWVRQAPGQGLEWMGIINPSGGSTSYAQKFQGRVTMTRDTSTSTVYMELSSLRSEDTAVYYCARDISTDGESSLYYYMDVWGKGTTVTVSS VL: EIVMTQSPATLSVSPGERATLSCRASQSVSSNLAWYQQKPGQAPRLLIYGASTRATGIPARFSGSGSGTEFTLTISSLQSEDFAVYYCQQHDNFPFTFGGGTKVEIK | 20.1 |
| BIIB-9-590 (antibody, V domains shown) VH: QVQLVQSGAEVKKPGASVKVSCKASGYTFTSYYMHWVRQAPGQGLEWMGIINPSGGSTSYAQKFQGRVTMTRDTSTSTVYMELSSLRSEDTAVYYCARDQEWAYYGMDVWGQGTTVTVSS VL: EIVLTQSPATLSLSPGERATLSCRASQSVSSYLAWYQQKPGQAPRLLIYDASNRATGIPARFSGSGSGTDFTLTISSLEPEDFAVYYCQQVDNFPLTFGGGTKVEIK | 11.3 |
| BIIB-9-470 (antibody, V domains shown) VH: EVQLVESGGGLVQPGGSLRLSCAASGFTFSSYWMSWVRQAPGKGLEWVANIKQDGSEKYYVDSVKGRFTISRDNAKNSLYLQMNSLRAEDTAVYYCARDAGIAWALDYWGQGTLVTVS VL: DIQMTQSPSTLSASVGDRVTITCRASQSISSWLAWYQQKPGKAPKLLIYKASSLESGVPSRFSGSGSGTEFTLTISSLQPDDFATYYCQHPHSWTFGGGTKVEIK | 19.6 |

Next, values leading:

| Kd [nM] | Binder |
| --- | --- |
| 25.6 | BIIB-9-629 (antibody, V domains shown) VH: QVQLVQSGAEVKKPGASVKVSCKASGYTFTSYYMHWVRQAPGQGLEWMGVINPSGGSTSYAQKFQGRVTMTRDTSTSTVYMELSSLRSEDTAVYYCARDPSQDYATGTGWFDPWGQGTLVTVSS VL: DIQLTQSPSSLSASVGDRVTITCQASQDISNYLNWYQQKPGKAPKLLIYDASNLETGVPSRFSGSGSGTDFTFTISSLQPEDIATYYCQQLDSLPPTFGGGTKVEIK |
| 23.2 | BIIB-9-615 (antibody, V domains shown) VH: QVQLVQSGAEVKKPGASVKVSCKASGYTFTSYYMHWVRQAPGQGLEWMGIINPSGGSTSYAQKFQGRVTMTRDTSTSTVYMELSSLRSEDTAVYYCARDSPSSSSYWSLDLWGRGTLVTVSS VL: EIVLTQSPATLSLSPGERATLSCRASQSVSSYLAWYQQKPGQAPRLLIYDASNRATGIPARFSGSGSGTDFTLTISSLEPEDFAVYYCQQSCHWPWTFGGGTKVEIK |
| 24.2 | BIIB-9-1270 (antibody, V domains shown) VH: QVQLVQSGAEVKKPGASVKVSCKASGYTFTSYYMHWVRQAPGQGLEWMGIINPSGGSTSYAQKFQGRVTMTRDTSTSTVYMELSSLRSEDTAVYYCARDTGGYAFDIWGQGTLVTVSS VL: EIVLTQSPATLSLSPGERATLSCRASQSVSSYLAWYQQKPGQAPRLLIYDASNRATGIPARFSGSGSGTDFTLTISSLEPEDFAVYYCQQSADFPFTFGGGTKVEIK |
| 45.1 | BIIB-9-1269 (antibody, V domains shown) VH: QVQLVQSGAEVKKPGASVKVSCKASGYTFTSYYMHWVRQAPGQGLEWMGIINPSGGSTSYAQKFQGRVTMTRDTSTSTVYMELSSLRSEDTAVYYCARDRGQYYHFDLWGRGTLVTVSS VL: DIQMTQSPSSVSASVGDRVAITCRASQGISSWLAWYQQKPGKAPKLLIYAASSLQSGVPSRFSGSGSGTDFTLTISSLQPEDFATYYCQQASSFPFTFGGGTKVEIK |
| 37 | BIIB-9-1283 (antibody, V domains shown) VH: QVQLVQSGAEVKKPGASVKVSCKASGYTFTSYYMVWVRQAPGQGLEWMGIINPSGGSTSYAQKFQGRVTMTRDTSTSTVYMELSSLRSEDTAVYYCARVPTYRYSYLAFDIWGQGTMVTVSS VL: DIQMTQSPSSVSASVGDRVTITCRASQGISSWLAWYQQKPGKAPKLLIYAASSLQSGVPSRFSGSGSGTDFTLTISSLQPEDFATYYCQQASSFPPTFGGGTKVEIK |
| 45.6 | BIIB-9-1272 (antibody, V domains shown) VH: QVQLVQSGAEVKKPGASVKVSCKASGYTFTSYYMHWVRQAPGQGLEWMGIINPSGGSTSYAQKFQGRVTMTRDTSTSTVYMELSSLRSEDTAVYYCARDTGGYAFDIWGQGTLVTVSS VL: DIQMTQSPSSVSASVGDRVTITCRASQGISSWLAWYQQKPGKAPKLLIYAASSLQSGVPSRFSGSGSGTDFTLTISSLQPEDFATYYCQQASSFPFTFGGGTKVEIK |
| 28.4 | BIIB-9-1274 (antibody, V domains shown) VH: QVQLVQSGAEVKKPGASVKVSCKASGYTFTSYYMHWVRQAPGQGLEWMGIINPSGGSTSYAQKFQGRVTMTRDTSTSTVYMELSSLRSEDTAVYYCARDTGGYAFDIWGQGTLVTVSS VL: DIQMTQSPSSVSASVGDRVTITCRASQGISSWLAWYQQKPGKAPKLLIYAASSLQSGVPSRFSGSGSGTDFTLTISSLQPEDFATYYCQQANSFPFTFGGGTKVEIK |
| 44.5 | BIIB-9-1271 (antibody, V domains shown) VH: QVQLVQSGAEVKKPGASVKVSCKASGYTFTSYYMHWVRQAPGQGLEWMGIINPSGGSTSYAQKFQGRVTMTRDTSTSTVYMELSSLRSEDTAVYYCARDTGGYAFDIWGQGTLVTVSS VL: EIVMTQSPATLSVSPGERATLSCRASQSVSSNLAWYQQKPGQAPRLLIYGASTRATGIPARFSGSGSGTDFTLTISSLQPEDFATYYCQQGFSFPFTFGGGTKVEIK |
| 41.2 | BIIB-9-1284 (antibody, V domains shown) VH: QVQLVQSGAEVKKPGASVKVSCKASGYTFTSYYMVWVRQAPGQGLEWMGIINPSGGSTSYAQKFQGRVTMTRDTSTSTVYMELSSLRSEDTAVYYCARVPTYRYSYLAFDIWGQGTMVTVSS VL: EIVLTQSPATLSVSPGERATLSCRASQSVGSNLAWYQQKPGQAPRLLIYGASTRATGIPARFSGSGSGTEFTLTISSLQSEDFAVYYCQQHNHLPITFGGGTKVEIK |
